Assay results published in US20050171004A1, “Use of cardiotrophin-1 to promote wound healing and counteract overt fibrosis” (priority 2003, published 2005).

Key:
Assay type in all cases: cell-based, rat
[1] = tested on: cardiac fibroblasts; assay: 3H-thymidine incorporation (DNA synthesis) proliferation assay
Procedure: DNA synthesis was measured by uptake of ^3H-thymidine as previously described (Saward and Zahradka, 1997, Mol Cell Biochem 176: 53-59) with modification. Briefly, 2.5×10^4 cells (counted with a hemacytometer) in DMEM/F12 with 10% FBS were loaded into each well of 24-well culture plates, allowed to attach overnight and rendered quiescent in serum-free DMEM with 100 μM ascorbate for 24 hours. S-phase re-entry in response to CT-1 was measured in two ways: pulse labeling with ^3H-thymidine for 30 minutes every 6 hours, or labeling for the last 30 minutes of 6 or 12 hour incubation. DNA in cell lysate was precipitated with cold 20% trichloroacetic acid (TCA) and filtered through GF/A filters (Fisher). Beta emission from the dried filers was measured with Cytoscint scintillation fluid (ICN Pharmaceuticals, Costa Mesa, Calif.) and a scintillation counter (LS6500, Beckman Coulter, Fullerton, Calif.).

[2] = tested on: cardiac fibroblasts; assay: Western analysis of cell cycle regulatory proteins (cyclins, Rb)
Procedure: (§1) Protein concentrations of tissue and cell lysates were determined by the BCA method (Smith et al., 1985, Anal Biochem 150: 76-85). Proteins were separated by 8-12% SDS-PAGE and transferred to PVDF membrane (Roche, Indianapolis, Ind.) for 1 hour at 300 mA for small proteins or for 2 hours at 500 mA for proteins greater than 100 kDa. Membranes were blocked with 5% non-fat skim milk in tris-buffered saline containing 0.2% Tween 20 (TBST). Proteins were visualized with ECL Plus (Amersham) after probing with primary and secondary antibodies. Band intensity was quantified using a CCD camera imaging densitometer (GS670, Bio-Rad Laboratories (Canada) Ltd. Mississauga, Ontario).
Cardiac fibroblasts were isolated from the ventricles of rats and incubated with CT-1 for specified times and at specified concentrations. […] Addition of CT-1 results in S-phase re-entry within 6 hours of stimulation (FIG. 7). […] (FIG. 8). […] To determine the effect of CT-1 on cell cycle regulatory proteins, we incubated cardiac fibroblasts with CT-1 and lysed them at specified times. […] To determine if increased DNA synthesis was accompanied by an increase in cell number, we repeated the experiments in the absence of ^3H-thymidine, detached the cells from the plates and counted the total number of cells.

[3] = tested on: cardiac fibroblasts; assay: Protein synthesis assay (3H-leucine incorporation); details: CT-1 for 24 hours
Procedure: Protein synthesis was determined using the methods of Wolf and Neilson (Wolf and Neilson, 1990, Am J Physiol 259: 768-777). 2.5×10^4 cells (counted with a hemacytometer) were loaded into each well of 24-well plates, allowed to attach overnight, then rendered quiescent in serum free DMEM/F12 for 24 hours. Cells were stimulated with CT-1 for an additional 24 hours in the presence of 2 μCi/mL ^3H-leucine with or without inhibitors of signaling pathways. The culture media was aspirated, cells rinsed twice with phosphate buffered saline and proteins precipitated by two incubations with 10% TCA at room temperature. The precipitated protein was solubilized in 300 μl lysis buffer containing 0.5 M NaOH and 1% Triton X-100 at room temperature for 15 minutes. The lysate was transferred to scintillation vials, and beta emission was determined with 3 ml Ecolume scintillation fluid (ICN Pharmaceuticals) and a scintillation counter (LS6500, Beckman Coulter, Fullerton, Calif.).

[4] = tested on: cardiac fibroblasts; assay: Western analysis of phosphorylation of translational regulatory proteins; details: stimulation with CT-1
Procedure: as §1
To determine the effect of CT-1 on protein synthesis in cardiac fibroblasts we measured incorporation of ^3H-labeled leucine. […] Since the activity of translational regulatory proteins is modified by phosphorylation, we used phospho-specific antibodies to determine if CT-1 directly influenced the activity of these regulatory proteins.
We then determined the effect of pharmacologic inhibitors on the activation of this signaling cascade.

[5] = tested on: cardiac fibroblasts; assay: Collagen synthesis (P1CP radioimmunoassay of conditioned media); details: CT-1 for 24 hours
Procedure: Synthesis of mature type I collagen was determined by measuring the concentration of the carboxyterminal propeptide of type I collagen (P1CP) in conditioned media from CT-1 treated or untreated cardiac fibroblasts. 5×10^4 cells were loaded into each well of a 6 well plate, allowed to attach overnight, and serum starved for 24 hours. Cells were treated with CT-1 at specified concentrations for an additional 24 or 48 hours. P1CP content in 0.1 mL conditioned media was determined by radioimmunoassay according to the manufacturer's specification (Diasorin Inc, Stillwater, Minn.). Radioactivity was quantified with a gamma counter (Gamma 5500, Beckman Coulter, Fullerton, Calif.) and the concentration of P1CP was determined by the % B/B0 versus log concentration.

[6] = tested on: cardiac fibroblasts; assay: Wounded monolayer model, cortactin immunostaining; details: 4 hours after creation of the wound
Procedure: Cardiac fibroblasts were seeded onto coverslips in 6-well dishes and allowed to proliferate. Once the cells were near confluency, they were serum deprived for 24 hours. A scrape was made down the middle of the coverslip with the blunt end of a 1 ml syringe and the media was changed again. Cells were further incubated in the presence or absence of CT-1 and inhibitors at specified concentrations for specified times. The cells were then subjected to immunofluorescence staining as described herein.

[7] = tested on: cardiac fibroblasts; assay: Western analysis of myosin light chain phosphorylation; details: CT-1 10 ng/mL
Procedure: as §1
The infarct zone is repopulated by interstitial fibroblasts that infiltrate the scar after MI. […] Similar results were obtained when using the Costar Transwell® system (data not shown). To determine how the chemotactic response is transduced, we used specific inhibitors of intracellular signaling pathways. […] This effect could be blunted by co-incubation with AG490 (FIG. 22). […] Since activation of myosin motors is required for effective cell migration, and CT-1 induced migration could be inhibited by co-incubation with a myosin light chain kinase inhibitor, we sought to determine the effect of CT-1 on the phosphorylation status of myosin light chain. Myosin light chain regulates the ATPase activity of myosin heavy chain, and thus overall contractile activity. […] Myosin light chain phosphorylation could be prevented by co-incubation with ML-7 or W7 but not AG490 or PP2 (FIG. 25b).

B1: cardiotrophin-1 (protein, UniProt Q16619 1-201, looked up)
Cardiotrophin-1: MSRREGSLEDPQTDSSVSLLPHLEAKIRQTHSLAHLLTKYAEQLLQEYVQLQGDPFGLPSFSPPRLPVAGLSAPAPSHAGLPVHERLRLDAAALAALPPLLDAVCRRQAELNPRAPRLLRRLEDAARQARALGAAVEALLAALGAANRGPRAEPPAATASAASATGVFPAKVLGLRVCGLYREWLSRTEGDLGQLLPGGSA
notes: gp130 signaling cytokine of the LIF or IL-6 superfamily; 201 amino acids as a mature protein, 21.5 kDa
[1]; 6 or 12 hours incubation
  CT-1 dose of peak 3H thymidine incorporation (maximal DNA synthesis): 10 to 20 ng/mL
  lowest CT-1 concentration with elevated incorporation of 3H thymidine: 1 ng/mL
[1]; pretreatment with inhibitors, CT-1 10 ng/mL for 12 hours
  pathway dependence of CT-1 induced cell proliferation (DNA synthesis): dependent on Jak, P13-K, MAPK, and Src kinases
[1]; quiescent cells, 10 ng/mL CT-1, 3H-thymidine pulse labeling
  time to S-phase re-entry after addition of CT-1: ≤ 6 h
[2]; Rb pS795, pS807/811
  phosphorylation of the retinoblastoma protein: hyperphosphorylation
[2]; cyclins A, E, CT-1 for specified times
  expression of cyclins: increase in expression of cyclins
[3]
  protein synthesis (3H-leucine incorporation): dose-dependent increase in protein synthesis
[4]
  phosphorylation of Akt T308/S473, p70 S6 kinase T389 and S421/T424, Mnk1, eIF4E, 4E-BP1 and S6 ribosomal protein: induced an increase in phosphorylation
[5]; corrected for cell number
  P1CP expression normalized to the number of cells at the end of the experiment: apparent decrease in overall mature collagen synthesis
[5]; not normalized
  expression of P1CP in the culture media (mature collagen synthesis): increased expression of P1CP
[6]
  localization of cortactin: at the leading edge of lamellipodia
[7]
  phosphorylation of myosin light chain at threonine 18/serine 19: induced phosphorylation
